B1: NF1: recombinant unphosphorylated fragment (88–183) of the N-terminal region of CPEB1 Isoform 1 (Uniprot Q9BZB8) (protein, UniProt Q9BZB8 88-183, looked up, fragment)
chain: GLPDANDLCLGLQSLSLTGWDRPWSTQDSDSSAQSSTHSVLSMLHNPLGNVLGKPPLSFLPLDPLGSDLVDKFPAPSVRGSRLDTRPILDSRSSSP
B2: NF2: recombinant unphosphorylated fragment (196–293) of the N-terminal region of CPEB1 Isoform 1 (Uniprot Q9BZB8) (protein, UniProt Q9BZB8 196-293, looked up, fragment)
chain: DHLSDLISSLRISPPLPFLSLSGGGPRDPLKMGVGSRMDQEQAALAAVTPSPTSASKRWPGASVWPSWDLLEAPKDPFSIEREARLHRQAAAVNEATC

Target: Pin1 WW domain
Assay: ITC titration of unphosphorylated CPEB1 N-terminal fragments with Pin1 WW domain
Format: binding
Conditions: Pin1 WW domain as titrant, fragment as titrate, titrations could not be efficiently saturated, data not shown
Text: CPEB1 proteins display high sequence conservation in vertebrates (Supplementary Fig.1). To gain insight into the association of Pin1 with CPEB1 in the basal state, we prepared two recombinant fragments named NF1 (88–183) and NF2 (196–293), selected from the N-terminal region of CPEB1 (Fig. 1a). The boundaries of these constructs were chosen to be similar to that used by Nechama et al.[14], and were extended to include Ser210, known to be essential for degradation after phosphorylation by Cdc2[9]. Since target recognition of Pin1 is achieved by the interaction of the WW domain with the protein partners, we prepared an ^15N-labeled WW domain sample and monitored the chemical shift perturbations induced in the WW domain by the presence of the ligands (1:1 WW: ligand ratio) using HSQC experiments (Fig. 1b,c). These experiments reveal that, despite the low affinity associations, residues of the WW domain are clearly affected by the presence of the CPEB 1 fragments. Attempts to saturate the NMR titration using high ligand excess were precluded due to the aggregation tendency of the NF1 and NF2 fragments. […]
ITC measurements were performed using a nano ITC calorimeter (TA Instruments) at 12 °C or 25 °C. […] Protein concentration was measured in a NanoDrop™ 2000 measuring the UV absorption at 280 nm. Peptide concentration was determined by amino acid analysis. […]

Molecule	binding affinity to Pin1 WW domain
B1	high μM up to the mM range
B2	high μM up to the mM range

From article PMC4601027, “Structural Analysis of the Pin1-CPEB1 interaction and its potential role in CPEB1 degradation” (Scientific Reports, 2015)
